1 molecule from patent US20230189818A1, “RNA-BASED CONTROL OF BOTRYTIS” (priority 2021, published 2023) can be followed below.

The subject of data set [1] is Botrytis cinerea isolate (B05.10). Put plainly: Detached leaf assay (tomato leaflets, lesion size). In kind it is in vivo. To be noted: five days post inoculation, vs untreated inoculated control. The essentials:
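Tomato (Brandywine) detached lateral leaflets were sprayed with treatment in 0.03% Silwet L-77 24 h before inoculation. Two 10 μL drops of 1×10^5 conidia/mL in 7% grape juice were applied per leaflet, which was then incubated at 23 °C, ~75% RH, 12/12 light. Lesion diameter was measured at 5 DPI against the untreated inoculated control, ten replicates.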

Another data set concerns B. cinerea. Put plainly: Open-air field trial on snap bean (Example 4.3, AUDPC of % disease severity). In kind it is in vivo, Botrytis cinerea. To be noted: Switch 525 g ai/ha, GS349 20 and 40, GS2280 10 and 40, GS2303 10, 20 and 40, GS2297 20 g ai/ha, FIG. 9. On the procedure:
RNAi compositions, each containing a dsRNA comprising a trigger sequence (GS349, GS2280, GS2303, or GS2297) described herein were evaluated for ability to control botrytis on snap bean in open-air filed trials. All test samples were formulated with RO water, propylene glycol, a linear alcohol ethoxylate, a lignosulfanate, sodium citrate dihydate, a polyacrylic acid polymer, two biocide compositions, anhydrous citric acid, and an antifoam, all of which are readily commercially available. Formulation samples were tank mixed with a standard adjuvant, the non-ionic surfactant, Activator 90 0.125%v/v. Compositions were tested at concentrations of 10, g ai/ha, 20 g ai/ha, and 40 g ai/ha. Positive controls were a chemical standard, Switch 525 g ai/ha and a biological standard, Double Nickel LC 9.4 I/ha, both of which were also tank mixed with Activator 90 0.125% v/v. As above, an untreated check was used as a negative control.
Compositions were applied to snap bean plants using a small plot sprayer delivering 50 gallons of water per acre. A total of three applications were used for each sample and positive control. Disease state was evaluated beginning 8 days after the first application and ending 37 days after the third and final application. Percent Disease Severity was assessed and AUDPC was calculated in the same manner as noted in Example 4.1.

B1: GS2297: dsRNA trigger targeting B. cinerea Bcrpb5 (XM_024693733.1); trigger SEQ ID NO 23, RNA 35, reverse complement 47 (nucleic acid, listed as Botrytis cinerea)
sense: UGCACCAUCAGGUCCCGCUCAAAAGAUUAUUCCCGCUGUCGCAUCCGAGACAAGAAUCGAGACCUUCGUCGAGCAAGAUUUACUUGUCAAUAUUACACAUCAUGAAUUGGUUCCCAAGCAUGUUUUGUUAAGUAGAGAAGAGAGGGCCAAGUUGUUGUCAAGAUAUAGAUUGAAGGAUACUCAACUCCCACGUAUUCAGGCUGCGGAUCCAGUUGCAAAAUAUUUGGGAUUGAGAAGAGGGCAGGUCGUUAAGAUUAUCAGAAAGUCGGAAACUGCUGGUCGUUAUGCCAGUUACAGAUUGUGCGUAUAAUGGAGCUGGAGGGUAGAUGAUUUGGUGUUAAUAACUAGGGAGUUUCUUGGGAAAAAUUUGCAUAUUUGGGGAAGGCGUAAUAGGCUGGAAGAAAGACUGAGGAUGAGAUUGUCUAUUUUGGCUUUCCAGGAAGCAAUACUUUGAGACAUGAAAUUUGAUAUUAAAUUUCUUGUUCUGUAUAUUUCUGAUAGUUUCAGAGCUUUUCAAUAAGAUCUAUUCUACAGUUUUAAGAAUCCAGACUCACCCUUUGAGAAGCUCAUACAAAGUUCCUUCCUA
antisense: UAGGAAGGAACUUUGUAUGAGCUUCUCAAAGGGUGAGUCUGGAUUCUUAAAACUGUAGAAUAGAUCUUAUUGAAAAGCUCUGAAACUAUCAGAAAUAUACAGAACAAGAAAUUUAAUAUCAAAUUUCAUGUCUCAAAGUAUUGCUUCCUGGAAAGCCAAAAUAGACAAUCUCAUCCUCAGUCUUUCUUCCAGCCUAUUACGCCUUCCCCAAAUAUGCAAAUUUUUCCCAAGAAACUCCCUAGUUAUUAACACCAAAUCAUCUACCCUCCAGCUCCAUUAUACGCACAAUCUGUAACUGGCAUAACGACCAGCAGUUUCCGACUUUCUGAUAAUCUUAACGACCUGCCCUCUUCUCAAUCCCAAAUAUUUUGCAACUGGAUCCGCAGCCUGAAUACGUGGGAGUUGAGUAUCCUUCAAUCUAUAUCUUGACAACAACUUGGCCCUCUCUUCUCUACUUAACAAAACAUGCUUGGGAACCAAUUCAUGAUGUGUAAUAUUGACAAGUAAAUCUUGCUCGACGAAGGUCUCGAUUCUUGUCUCGGAUGCGACAGCGGGAAUAAUCUUUUGAGCGGGACCUGAUGGUGCA
As for B1, the “Average % Reduction in Lesion Size” value in data set [1] (30 ppm) is 27.63%; in data set [1] (50 ppm), 24.35%. In addition, in the data set on B. cinerea, the “Disease state compared to treatment with the chemical standard (AUDPC)” value is “no significant difference”.
